Changes are numbered by the printed parent chain.
B1: Fab-Fc/Fab-Fc bispecific antibody (zalutumumab Fab x pertuzumab Fab), KIH combination (K0/H0) (bispecific antibody, human IgG1, kappa)
heavy 1: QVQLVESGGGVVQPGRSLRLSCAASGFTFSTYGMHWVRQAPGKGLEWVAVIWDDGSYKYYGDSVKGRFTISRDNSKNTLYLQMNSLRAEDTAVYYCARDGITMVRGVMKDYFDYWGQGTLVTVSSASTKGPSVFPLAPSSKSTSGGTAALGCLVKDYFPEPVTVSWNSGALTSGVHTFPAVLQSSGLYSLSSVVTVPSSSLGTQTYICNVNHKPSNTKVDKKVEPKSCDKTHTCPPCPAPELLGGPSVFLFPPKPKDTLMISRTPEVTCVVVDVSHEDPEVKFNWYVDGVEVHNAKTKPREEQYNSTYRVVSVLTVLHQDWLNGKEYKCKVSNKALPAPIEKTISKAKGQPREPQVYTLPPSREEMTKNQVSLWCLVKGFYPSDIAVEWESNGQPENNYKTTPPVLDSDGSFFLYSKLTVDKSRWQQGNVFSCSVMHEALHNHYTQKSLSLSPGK
light 1: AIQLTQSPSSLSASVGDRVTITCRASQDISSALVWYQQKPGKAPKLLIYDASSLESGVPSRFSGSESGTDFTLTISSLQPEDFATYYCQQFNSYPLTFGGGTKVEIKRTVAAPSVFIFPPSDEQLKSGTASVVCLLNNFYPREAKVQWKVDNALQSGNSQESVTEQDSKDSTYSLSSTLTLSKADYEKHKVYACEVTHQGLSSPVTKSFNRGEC
heavy 2: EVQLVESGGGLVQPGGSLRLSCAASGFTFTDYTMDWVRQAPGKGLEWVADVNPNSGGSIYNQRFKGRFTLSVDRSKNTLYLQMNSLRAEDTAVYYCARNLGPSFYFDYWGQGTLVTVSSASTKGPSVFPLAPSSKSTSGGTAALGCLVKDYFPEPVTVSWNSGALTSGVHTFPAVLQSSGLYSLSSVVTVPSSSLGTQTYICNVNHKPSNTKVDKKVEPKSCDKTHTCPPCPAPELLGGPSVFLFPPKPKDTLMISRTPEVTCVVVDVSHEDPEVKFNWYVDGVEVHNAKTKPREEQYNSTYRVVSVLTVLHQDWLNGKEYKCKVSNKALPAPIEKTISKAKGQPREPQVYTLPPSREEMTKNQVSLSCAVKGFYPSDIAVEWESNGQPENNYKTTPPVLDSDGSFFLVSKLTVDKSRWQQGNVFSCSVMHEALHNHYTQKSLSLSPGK
light 2: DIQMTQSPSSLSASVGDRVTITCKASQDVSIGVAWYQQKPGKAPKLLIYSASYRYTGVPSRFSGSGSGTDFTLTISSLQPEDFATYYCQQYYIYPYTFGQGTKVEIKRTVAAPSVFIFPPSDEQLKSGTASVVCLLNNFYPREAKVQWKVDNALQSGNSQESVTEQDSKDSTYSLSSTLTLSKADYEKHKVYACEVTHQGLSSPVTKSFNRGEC
notes: Human IgG1 Fc (hinge, CH2, CH3); the exact junction between VH-CH1 and Fc (EU 221-447) is not spelled out; also called KIH control
B2: Fab-Fc/Fab-Fc bispecific antibody (zalutumumab Fab x pertuzumab Fab), M1 mutant combination (K2/H2) (bispecific antibody, human IgG1, kappa)
heavy 1: not shown
light 1: not shown
heavy 2: EVQLVESGGGLVQPGGSLRLSCAASGFTFTDYTMDWVRQAPGKGLEWVADVNPNSGGSIYNQRFKGRFTLSVDRSKNTLYLQMNSLRAEDTAVYYCARNLGPSFYFDYWGQGTLVTVSSASTKGPSVFPLAPSSKSTSGGTAALGCLVKDYFPEPVTVSWNSGALTSGVHTFPAVLQSSGLYSLSSVVTVPSSSLGTQTYICNVNHKPSNTKVDKKVEPKSCDKTHTCPPCPAPELLGGPSVFLFPPKPKDTLMISRTPEVTCVVVDVSHEDPEVKFNWYVDGVEVHNAKTKPREEQYNSTYRVVSVLTVLHQDWLNGKEYKCKVSNKALPAPIEKTISKAKGQPREPQVYTLPPSREEMTKNQVSLSCAVKGFYPSDIAVEWESNGQPENNYKTTPPVLRSDGSFFLVSKLTVDKSRWQQGNVFSCSVMHEALHNHYTQKSLSLSPGK
light 2: not shown
notes: Human IgG1 Fc; Junction between VH-CH1 and Fc not spelled out; no linker named for this format
B3: Fab-Fc/Fab-Fc bispecific antibody (zalutumumab Fab x pertuzumab Fab), M2 mutant combination (K0/H8) (bispecific antibody, human IgG1, kappa)
heavy 1: not shown
light 1: not shown
heavy 2: B2 heavy 2 with L353Y, R401D
light 2: not shown
notes: as for B2
B4: Fab-Fc/Fab-Fc bispecific antibody (zalutumumab Fab x pertuzumab Fab), M3 mutant combination (K2/H7) (bispecific antibody, human IgG1, kappa)
heavy 1: not shown
light 1: not shown
heavy 2: B2 heavy 2 with L353Y
light 2: not shown
notes: as for B2

Legend:
[1] = target: T1, Recombinant human EGFR protein (ACRO Biosystems, EGR-H5222) (human, UniProt P00533 25-645); experiment: ELISA, EGFR coated on the plate
T1 construct: Bought protein

[2] = target: T2, recombinant human FcγRI protein (ACRO Biosystems, Cat. FCA-H52H1) (human, UniProt P12314 16-288, limits assumed); experiment: BLI (Octet Red 96), FcγRI on HIS1K sensors
T2 construct: Captured on anti-His (HIS1K) biosensors, so it carries a His tag; also called FcγRI receptor
T2 sequence (P12314 16-288 limits assumed): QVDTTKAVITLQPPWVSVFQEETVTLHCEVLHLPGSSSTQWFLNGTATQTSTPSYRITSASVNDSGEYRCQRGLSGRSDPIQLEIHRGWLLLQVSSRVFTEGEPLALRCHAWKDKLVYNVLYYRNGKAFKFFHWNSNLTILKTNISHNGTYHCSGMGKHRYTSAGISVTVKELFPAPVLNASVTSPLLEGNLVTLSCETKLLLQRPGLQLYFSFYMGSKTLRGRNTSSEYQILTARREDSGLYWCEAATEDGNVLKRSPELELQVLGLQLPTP

Row | Binder | binding result [1] | binding result [2]
1 | B1 | binds | binds
2 | B2 | binds | binds
3 | B3 | binds | binds
4 | B4 | binds | binds
